These results are taken from PMC8629852 (Archives of biochemistry and biophysics, 2021).

In series [1] the target is adrenodoxin (Homo sapiens) (UniProt P10109). In words: microscale thermophoresis. Conditions: cited from earlier work. In general terms: Microscale thermophoresis detects binding through changes in fluorescence in a small temperature gradient.
The next series has as its target adrenodoxin (UniProt P00257). Conditions: cited from earlier work.
The series “cross-linking” concerns the molecule itself. As to the kind of experiment: cross-linking.

What is called Kd is the concentration at which binding is half-saturated. For the molecule P450 27C1 (from UniProt Q4G0S4), the Kd in series [1] is 220 nM.

In the case of AdR (from UniProt P08165), the Kd with adrenodoxin was 70 nM.

B1: Human adrenodoxin (Adx), unlabeled (natural protein, UniProt P10109 61-184, looked up)
chain: SSSEDKITVHFINRDGETLTTKGKVGDSLLDVVVENNLDIDGFGACEGTLACSTCHLIFEDHIYEKLDAITDEENDMLDLAYGLTDRSRLGCQICLTKSMDNMTVRVPETVADARQSIDVGKTS
Usually stoichiometry N stands for the number of molecules, sites or subunits per partner or assembly. Take B1: the “stoichiometry N” value in the series “cross-linking” is 2.
